Measured values from patent US20220364094, “CD44 APTAMER” (The Chiness University Of Hong Kong, published 2022).

Biological target: CD44 hyaluronic acid binding domain (HABD) (UniProt P16070 P16070:21-178)
Test: ELONA; hardly associated with HABD; epitope expected in region encoded by exons 15-16
Settings: tags: His-tag, commercial; captured via His-tag antibody; label: biotin (loop of second hairpin, 44G-48A region); two hairpins and one stem (predicted)
Protocol: His-tag recombinant CD44 HABD protein was immobilized on ELISA plate using His-tag antibody. The captured CD44 proteins were incubated with various concentrations of biotin-labeled CD44-Apt1 (5 nM-10 μM). Bound Apt1 then were detected by peroxidase-conjugated streptavidin and TMB substrate. […] constant, KD was calculated based on the absorbance values using the one-site binding model for non-linear regression in GraphPad.
The major epitope in CD44 protein that is recognized by the CD44-Apt1 was next determined. CD44 protein consists of an extracellular domain, a transmembrane helical domain, and an intracellular signaling transmission domain (FIG. 1H). The extracellular domain contains a hyaluronic acid binding domain (HABD) at its distal N-terminus and a glycosylation-site enriched variable region, the length of which are vary in different splice variants. Titration sandwich enzyme-linked immunosorbent assay (ELISA) was employed to map the epitope for CD44-Apt1. Antibody targeting the C-terminus of CD44 proteins that is the intracellular signaling domain was immobilized on a polystyrene support. Sites without antibody were blocked using bovine serum albumin. […] The amount of biotin-CD44-Apt1 bound to the captured proteins were evaluated using streptavidin conjugated horseradish peroxidase (HRP) and TMB substrate.

Chain of CD44 hyaluronic acid binding domain (HABD) (P16070 21-178, one chain of several): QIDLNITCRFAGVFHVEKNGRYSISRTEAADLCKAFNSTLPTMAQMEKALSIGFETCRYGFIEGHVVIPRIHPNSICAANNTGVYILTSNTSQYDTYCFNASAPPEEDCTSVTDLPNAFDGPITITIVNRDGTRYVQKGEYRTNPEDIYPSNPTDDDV

B1: CD44-Apt1 (biotin) (ssDNA)
DNA: ATCCAGAGTGACGCAGCATCGCAACGATTAGTATGCACCCACCGTATAGGTTGGTCTCTGGACACGGTGGCTTAGT
- Kd: 2360 nM
